Source: patent publication US20170313754A1 (PROTAGONIST THERAPEUTICS, published 2017)
Like-named read-outs stand apart in the source and are kept apart here. Blank lines part the entries; values can stand above or below the binder they belong to. Numbered stars: 1 amine (or outer) side, 2 acyl side, 3 side chain; on linkers, the order of the positions; unused ones are H or OH. Square brackets hold non-standard residues; d marks the D form. Primed or numbered codes have the meaning given here. Ends that are not written are not given here. * marks the point of attachment. Ida = iminodiacetic acid, O=C(CN(CC(=O)[*:3])[*:1])[*:2]; PEG3′ = NH2CH2CH2(OCH2CH2)3CH2CH2CO2H (PEG3 linker); Dip = N[C@H](C(=O)O)C(c1ccccc1)c1ccccc1; Palmitoyl = CCCCCCCCCCCCCCCC(=O)*; β3hF = N[C@H](CC(=O)O)Cc1ccccc1; pGlu = O=C1CC[C@@H](C(=O)O)N1; β3hP = O=C(O)C[C@@H]1CCCN1; Isovaleryl = CC(C)CC(=O)*; Palm = palmitoyl

Key:
Test in all cases: cell-based or functional assay
[1] = molecular target: T1, human ferroportin (SLC40A1) fused in frame with GFP, stably expressed on HEK293 cells (human, UniProt Q9NP59 1-571)
T1 sequence (looked up): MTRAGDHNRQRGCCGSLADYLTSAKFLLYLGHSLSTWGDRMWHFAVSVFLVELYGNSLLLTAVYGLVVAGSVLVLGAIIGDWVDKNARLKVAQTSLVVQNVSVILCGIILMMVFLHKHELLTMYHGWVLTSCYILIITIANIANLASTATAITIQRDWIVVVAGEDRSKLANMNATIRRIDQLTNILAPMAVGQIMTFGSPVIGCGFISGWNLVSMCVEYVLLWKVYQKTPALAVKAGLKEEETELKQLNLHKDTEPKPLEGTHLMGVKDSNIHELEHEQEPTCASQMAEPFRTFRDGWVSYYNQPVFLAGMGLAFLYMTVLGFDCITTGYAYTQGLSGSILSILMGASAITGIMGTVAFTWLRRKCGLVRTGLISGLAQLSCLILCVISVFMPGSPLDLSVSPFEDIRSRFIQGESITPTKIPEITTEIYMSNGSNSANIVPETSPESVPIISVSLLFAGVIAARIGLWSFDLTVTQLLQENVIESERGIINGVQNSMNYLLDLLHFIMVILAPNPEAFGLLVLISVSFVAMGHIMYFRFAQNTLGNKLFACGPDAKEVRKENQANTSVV

[2] = molecular target: T1, human ferroportin (SLC40A1) fused in …; remark: listed apart in the source
[3] = molecular target: T1, human ferroportin (SLC40A1) fused in …; remark: listed apart in the source
[4] = molecular target: T1, human ferroportin (SLC40A1) fused in …; remark: listed apart in the source
[5] = molecular target: T2, human ferroportin (SLC40A1) fused in frame with GFP, stably expressed on HEK293 cells (human, UniProt Q9NP59 1-571); remark: listed apart in the source
T2 sequence (looked up): T1 sequence (looked up)

Potency EC50 (nM), ferroportin degradation [3]: > 10000 nM
Binder: FICIPFHTD (all nine residues are D-amino acids (retro inverse); C-terminal amide) [RI-Mini Hepcidin, Hy-DPhe-DIle-DCys-DIle-DPro-DPhe-DHis-DThr-DAsp-NH2]

percent at the stated concentration (printed in the Potency EC50 column), ferroportin internalization/degradation assay [4]: 31 % at 10 uM
Binder: [pGlu]THFPCRKF-NH2 (also: homodimer, linkage of subunits not given here) [([pGlu]-THFPCRKF-NH2)2]

Potency EC50 (nM), ferroportin internalization/degradation assay (loss of GFP fluorescence) [5]: 9 nM
B1: Cmpd6: Isovaleric acid-DTHFPCIIF-[Sarc]-PHSKG-[N-MeTrp]-VC-NH2 (peptide)
peptide: DTHFPCIIFXPHSKGWVC
modifications: N-terminal isovaleric acid; sarcosine [Sarc] at position 10; N-methyl-tryptophan [N-MeTrp] at position 16; C-terminal amide (-NH2)

Continued, binder first:

Binder: H-DTHFPICIF-NH2 (also: homodimer, link between subunits not given here) [(Hy-DTHFPICIF-NH2)2]
Potency EC50 (nM), ferroportin internalization/degradation assay [1]: 146 nM

Binder: [Ida]TH[Dip][β3hP]RCR[β3hF]-{PEG3′-Palm} (also: homodimer, linkage not given here) [(Ida-TH-Dpa-bhPro-RCR-bhPhe-PEG3-Palm)2]
Potency EC50 (nM), ferroportin internalization/degradation assay [1]: 31 nM

Binder: DTHFPICIFK (N-terminal isovaleric acid; Palm on the side chain of Lys 10; C-terminal amide) [(isovaleric acid-DTHFPICIFK(Palm)-NH2)2]
Potency EC50 (nM), ferroportin internalization/degradation assay [2]: 580 nM

Binder: Isovaleryl-DTHFPCIKFAA-NH2 (also: homodimer, linkage of subunits not given here) [(isovaleric acid-DTHFPCIKFAA-NH2)2]
Potency EC50 (nM), ferroportin internalization/degradation assay [2]: 47 nM

Binder: H-DTHFPICIF-NH2 [Mini-Hepcidin 1-9, Hy-DTHFPICIF-NH2]
Potency EC50 (nM), ferroportin degradation [3]: 712 nM

Binder: Isovaleryl-DTHFPCIK(Palmitoyl)F-NH2 (also: homodimer, linkage of subunits not given here) [(isovaleric acid-DTHFPCIK(Palm)-F-NH2)2]
Potency EC50 (nM), ferroportin internalization/degradation assay [2]: 294 nM

Binder: H-DTHFPCLF-NH2 (also: homodimer, link between subunits not given here) [(Hy-DTHFPCLF-NH2)2]
Potency EC50 (nM), ferroportin internalization/degradation assay [4]: 297 nM
